# Results from the supplement of paper PMC9112550, “Optimization of the antimicrobial peptide Bac7 by deep mutational scanning” (BMC Biology, 2022).
# Tested on: Escherichia coli TOP10
# Test: shrunken log2 fold change of peptide-encoding DNA abundance (4.5 h post-induction vs induction); higher = less antimicrobial activity (less host growth inhibition)
# Conditions: time post-induction: 4.5 h; library: site-saturation at positions 5, 18, 19, 20
# 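Further: peptides expressed intracellularly from a pBAD plasmid library in pooled LB shake-flask culture, induced with 0.3% L-arabinose, DNA abundance read by NGS, three biological replicates, DESeq2 with apeglm shrinkage.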
row,Sequence,shrunken log2 fold change
1,RRIRTRPPRLPRPRPRPWNRPRP,-0.0406
2,RRIRIRPPRLPRPRPRPQHPPRP,-0.176
3,RRIRARPPRLPRPRPRPITMPRP,-0.231
4,RRIRLRPPRLPRPRPRPEAEPRP,0.96
5,RRIRHRPPRLPRPRPRPKWKPRP,0.107
6,RRIRTRPPRLPRPRPRPIVCPRP,-0.246
7,RRIRNRPPRLPRPRPRPQRNPRP,-0.109
8,RRIRKRPPRLPRPRPRPQMFPRP,-0.00577
9,RRIRYRPPRLPRPRPRPPLVPRP,0.174
10,RRIRFRPPRLPRPRPRPSWGPRP,-0.243
11,RRIRNRPPRLPRPRPRPWRQPRP,-0.0337
12,RRIRSRPPRLPRPRPRPWSHPRP,-0.174
13,RRIRFRPPRLPRPRPRPWWLPRP,-0.0533
14,RRIRVRPPRLPRPRPRPYRCPRP,-0.0108
15,RRIRMRPPRLPRPRPRPYHDPRP,-0.256
16,RRIRERPPRLPRPRPRPTTDPRP,-0.148
17,RRIRNRPPRLPRPRPRPFCIPRP,-0.186
18,RRIRYRPPRLPRPRPRPDNVPRP,-0.0165
19,RRIRSRPPRLPRPRPRPVESPRP,-0.0897
20,RRIRFRPPRLPRPRPRPGCHPRP,-0.141
21,RRIRPRPPRLPRPRPRPSPAPRP,0.209
22,RRIRQRPPRLPRPRPRPVMDPRP,-0.39

row,Sequence,shrunken log2 fold change
1,RRIRPRPPRLPRPRPRPMFLPRP,-0.269
2,RRIRFRPPRLPRPRPRPPHQPRP,0.301
3,RRIRDRPPRLPRPRPRPWADPRP,-0.00486
4,RRIRKRPPRLPRPRPRPMISPRP,0.18
5,RRIRERPPRLPRPRPRPRQSPRP,-0.0972
6,RRIRRRPPRLPRPRPRPGAWPRP,-9.3e-05
7,RRIRTRPPRLPRPRPRPRFNPRP,-0.286
8,RRIRMRPPRLPRPRPRPGPRPRP,1.46
9,RRIRPRPPRLPRPRPRPNCDPRP,-0.257
10,RRIRTRPPRLPRPRPRPMCVPRP,0.103
11,RRIRCRPPRLPRPRPRPLQVPRP,-0.481
12,RRIRNRPPRLPRPRPRPGRHPRP,0.00674
13,RRIRCRPPRLPRPRPRPHKTPRP,-0.0871
14,RRIRGRPPRLPRPRPRPKLFPRP,0.75
15,RRIRQRPPRLPRPRPRPKGRPRP,0.0377
16,RRIRARPPRLPRPRPRPVIPPRP,-0.296
17,RRIRSRPPRLPRPRPRPDKHPRP,-0.402
18,RRIRQRPPRLPRPRPRPVSGPRP,0.179
19,RRIRQRPPRLPRPRPRPPKKPRP,-0.0474
20,RRIRDRPPRLPRPRPRPAEPPRP,0.288
21,RRIRNRPPRLPRPRPRPMPLPRP,-0.0789
22,RRIRERPPRLPRPRPRPTGYPRP,-0.0056

row,Sequence,shrunken log2 fold change
1,RRIRQRPPRLPRPRPRPSDPPRP,0.114
2,RRIRMRPPRLPRPRPRPMSIPRP,-0.0109
3,RRIRYRPPRLPRPRPRPMKWPRP,0.00957
4,RRIRRRPPRLPRPRPRPGNLPRP,0.0367
5,RRIRWRPPRLPRPRPRPHVAPRP,0.181
6,RRIRCRPPRLPRPRPRPWENPRP,0.0328
7,RRIRQRPPRLPRPRPRPCPRPRP,-0.01
8,RRIRRRPPRLPRPRPRPCCCPRP,0.0202
9,RRIRKRPPRLPRPRPRPDTTPRP,0.0419
10,RRIRHRPPRLPRPRPRPQVFPRP,-0.00865
11,RRIRVRPPRLPRPRPRPFHAPRP,-0.229
12,RRIRNRPPRLPRPRPRPRYIPRP,-0.455
13,RRIRRRPPRLPRPRPRPCVRPRP,0.11
14,RRIRDRPPRLPRPRPRPRMPPRP,0.156
15,RRIRCRPPRLPRPRPRPVCWPRP,0.401
16,RRIRHRPPRLPRPRPRPDDAPRP,0.0602
17,RRIRGRPPRLPRPRPRPMNLPRP,0.00442
18,RRIRERPPRLPRPRPRPGCIPRP,-1.12
19,RRIRFRPPRLPRPRPRPDKEPRP,-0.0026
20,RRIRHRPPRLPRPRPRPNYFPRP,-0.125
21,RRIRFRPPRLPRPRPRPAFNPRP,-0.367
22,RRIRIRPPRLPRPRPRPENGPRP,-0.219

row,Sequence,shrunken log2 fold change
1,RRIRVRPPRLPRPRPRPVWKPRP,0.0859
2,RRIRKRPPRLPRPRPRPPVMPRP,0.337
3,RRIRARPPRLPRPRPRPPKMPRP,0.298
4,RRIRHRPPRLPRPRPRPVSAPRP,0.0852
5,RRIRSRPPRLPRPRPRPDANPRP,0.183
6,RRIRDRPPRLPRPRPRPKSMPRP,-0.0219
7,RRIRVRPPRLPRPRPRPCDVPRP,0.0119
8,RRIRQRPPRLPRPRPRPMNHPRP,-0.337
9,RRIRHRPPRLPRPRPRPDPLPRP,-0.106
10,RRIRWRPPRLPRPRPRPLYNPRP,-0.78
11,RRIRWRPPRLPRPRPRPFKAPRP,0.0343
12,RRIRVRPPRLPRPRPRPNPTPRP,-0.325
13,RRIRWRPPRLPRPRPRPSYVPRP,-0.651
14,RRIRRRPPRLPRPRPRPVITPRP,-0.554
15,RRIRARPPRLPRPRPRPASYPRP,0.187
16,RRIRWRPPRLPRPRPRPKTGPRP,0.491
17,RRIRQRPPRLPRPRPRPMGLPRP,-0.0103
18,RRIRNRPPRLPRPRPRPCMCPRP,0.0188
19,RRIRARPPRLPRPRPRPYIQPRP,-0.873
20,RRIRGRPPRLPRPRPRPRVLPRP,0.367
21,RRIRPRPPRLPRPRPRPHCIPRP,-0.325
22,RRIRVRPPRLPRPRPRPMANPRP,0.146

row,Sequence,shrunken log2 fold change
1,RRIRVRPPRLPRPRPRPGALPRP,0.0362
2,RRIRVRPPRLPRPRPRPHICPRP,-0.18
3,RRIRHRPPRLPRPRPRPQECPRP,-0.0126
4,RRIRRRPPRLPRPRPRPVEYPRP,-0.00275
5,RRIRYRPPRLPRPRPRPVYKPRP,-0.924
6,RRIRFRPPRLPRPRPRPHFRPRP,-0.634
7,RRIRGRPPRLPRPRPRPKNMPRP,0.176
8,RRIRVRPPRLPRPRPRPNLHPRP,-0.239
9,RRIRPRPPRLPRPRPRPVNSPRP,-0.196
10,RRIRERPPRLPRPRPRPHHKPRP,-0.449
11,RRIRVRPPRLPRPRPRPFDAPRP,0.0132
12,RRIRERPPRLPRPRPRPRDMPRP,0.0375
13,RRIRHRPPRLPRPRPRPLKNPRP,-0.273
14,RRIRIRPPRLPRPRPRPQWRPRP,-0.191
15,RRIRGRPPRLPRPRPRPRKSPRP,0.326
16,RRIRCRPPRLPRPRPRPRWWPRP,0.718
17,RRIRCRPPRLPRPRPRPPTDPRP,0.298
18,RRIRTRPPRLPRPRPRPKNNPRP,-0.483
19,RRIRWRPPRLPRPRPRPTLSPRP,0.3
20,RRIRNRPPRLPRPRPRPPFTPRP,0.0907
21,RRIRFRPPRLPRPRPRPGEFPRP,-0.239
